Measured values as given in EP0504914A2 (E.R. SQUIBB & SONS, INC., dated 1992).

How the values were obtained:
[1] = target: T1, mouse trkB tyrosine protein kinase gp145^trkB (mouse, UniProt P15209 32-821); assay: cell-based or functional assay
[2] = target: T2, human trk proto-oncogene product gp140^trk (human, UniProt P04629 33-796); assay: cell-based or functional assay
[3] = target: T2, human trk proto-oncogene product …; assay: competition with [125I]-NGF on E25-48 cells
[4] = target: mutant mouse trkB receptor gp145^trkB/S345 (mouse, UniProt P15209 32-821); assay: cell-based or functional assay
[5] = target: T1, mouse trkB tyrosine protein kinase …; assay: cell-based or functional assay; remark: listed apart in the source
[6] = target: T3, endogenous trk proto-oncogene product of rat PC12 cells (rat, UniProt P35739 33-799); assay: Scatchard analysis, [125I]-βNGF on PC12 cells at 4°C, high affinity receptors
T3 construct: whole, on cells; also called PC12 endogenous trk proto-oncogene product; gp140^trk of PC12 cells

[7] = target: T1, mouse trkB tyrosine protein kinase …; assay: [125I]-βNGF binding to cells at 4°C
[8] = target: T2, human trk proto-oncogene product …; assay: Scatchard analysis, [125I]-βNGF on E25-427 cells at 4°C, high affinity receptors
[9] = target: T2, human trk proto-oncogene product …; assay: Scatchard analysis, [125I]-βNGF on Sf9 cells infected with pAcS2, high affinity receptors
[10] = target: T2, human trk proto-oncogene product …; assay: Scatchard analysis, [125I]-βNGF on E25-48 cells at 4°C, low affinity receptors
[11] = target: T4, rat low affinity NGF receptor gp80^LNGFR (rat, UniProt P07174 30-425); assay: Scatchard analysis, [125I]-βNGF on PC12 cells at 4°C, low affinity receptors
T4 construct: whole, on cells
T4 sequence (looked up): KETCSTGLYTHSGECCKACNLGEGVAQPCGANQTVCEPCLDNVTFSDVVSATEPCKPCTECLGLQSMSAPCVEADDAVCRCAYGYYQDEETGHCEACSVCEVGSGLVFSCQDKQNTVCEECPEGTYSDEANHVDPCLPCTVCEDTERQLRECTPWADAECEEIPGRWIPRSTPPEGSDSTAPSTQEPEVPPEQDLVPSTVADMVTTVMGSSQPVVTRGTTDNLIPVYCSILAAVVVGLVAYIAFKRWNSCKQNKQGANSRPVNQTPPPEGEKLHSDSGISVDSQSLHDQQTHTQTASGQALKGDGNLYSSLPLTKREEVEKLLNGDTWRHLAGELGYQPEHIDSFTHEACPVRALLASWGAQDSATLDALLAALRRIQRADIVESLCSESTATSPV

[12] = target: T2, human trk proto-oncogene product …; assay: cell-based or functional assay; remark: listed apart in the source
[13] = target: T2, human trk proto-oncogene product …; assay: Scatchard analysis, [125I]-βNGF on E25-48 cells at 4°C, high affinity receptors
[14] = target: T2, human trk proto-oncogene product …; assay: Scatchard analysis, [125I]-βNGF on Sf9 cells infected with pAcS2, low affinity receptors
[15] = target: T2, human trk proto-oncogene product …; assay: Scatchard analysis, [125I]-βNGF on E25-427 cells at 4°C, low affinity receptors
[16] = target: T5, porcine trkC product gp145^trkC (porcine); assay: Scatchard analysis, [125I]-NT-3 on R4-31 cells at 4°C, low affinity sites
T5 construct: Expressed from pFL20 in NIH3T3 cells (R4-31); also called trkC receptor

[17] = target: T5, porcine trkC product gp145^trkC; assay: Scatchard analysis, [125I]-NT-3 on R4-31 cells at 4°C, high affinity sites
[18] = target: T2, human trk proto-oncogene product …; assay: cell-based or functional assay; remark: listed apart in the source

T2 sequence (P04629 33-796): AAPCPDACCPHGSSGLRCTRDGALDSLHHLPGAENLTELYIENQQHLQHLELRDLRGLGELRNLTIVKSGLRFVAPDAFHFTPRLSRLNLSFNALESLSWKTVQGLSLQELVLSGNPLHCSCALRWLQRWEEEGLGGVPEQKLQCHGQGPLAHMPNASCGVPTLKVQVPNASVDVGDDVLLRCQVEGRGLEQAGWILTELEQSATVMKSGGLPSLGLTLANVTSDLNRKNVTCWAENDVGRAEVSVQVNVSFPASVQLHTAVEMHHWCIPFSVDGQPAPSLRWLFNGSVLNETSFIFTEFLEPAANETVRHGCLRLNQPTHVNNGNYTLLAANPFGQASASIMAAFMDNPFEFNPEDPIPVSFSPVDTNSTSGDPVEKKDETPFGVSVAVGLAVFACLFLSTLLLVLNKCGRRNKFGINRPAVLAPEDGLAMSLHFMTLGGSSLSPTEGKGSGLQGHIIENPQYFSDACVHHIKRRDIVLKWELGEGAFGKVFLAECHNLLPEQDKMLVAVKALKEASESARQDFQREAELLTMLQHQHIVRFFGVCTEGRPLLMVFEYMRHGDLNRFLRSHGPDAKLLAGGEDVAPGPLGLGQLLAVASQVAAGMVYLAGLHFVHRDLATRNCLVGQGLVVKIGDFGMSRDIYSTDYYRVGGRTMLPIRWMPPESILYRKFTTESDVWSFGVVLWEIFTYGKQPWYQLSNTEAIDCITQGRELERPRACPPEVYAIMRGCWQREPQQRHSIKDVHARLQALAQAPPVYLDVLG
T1 sequence (P15209 32-821): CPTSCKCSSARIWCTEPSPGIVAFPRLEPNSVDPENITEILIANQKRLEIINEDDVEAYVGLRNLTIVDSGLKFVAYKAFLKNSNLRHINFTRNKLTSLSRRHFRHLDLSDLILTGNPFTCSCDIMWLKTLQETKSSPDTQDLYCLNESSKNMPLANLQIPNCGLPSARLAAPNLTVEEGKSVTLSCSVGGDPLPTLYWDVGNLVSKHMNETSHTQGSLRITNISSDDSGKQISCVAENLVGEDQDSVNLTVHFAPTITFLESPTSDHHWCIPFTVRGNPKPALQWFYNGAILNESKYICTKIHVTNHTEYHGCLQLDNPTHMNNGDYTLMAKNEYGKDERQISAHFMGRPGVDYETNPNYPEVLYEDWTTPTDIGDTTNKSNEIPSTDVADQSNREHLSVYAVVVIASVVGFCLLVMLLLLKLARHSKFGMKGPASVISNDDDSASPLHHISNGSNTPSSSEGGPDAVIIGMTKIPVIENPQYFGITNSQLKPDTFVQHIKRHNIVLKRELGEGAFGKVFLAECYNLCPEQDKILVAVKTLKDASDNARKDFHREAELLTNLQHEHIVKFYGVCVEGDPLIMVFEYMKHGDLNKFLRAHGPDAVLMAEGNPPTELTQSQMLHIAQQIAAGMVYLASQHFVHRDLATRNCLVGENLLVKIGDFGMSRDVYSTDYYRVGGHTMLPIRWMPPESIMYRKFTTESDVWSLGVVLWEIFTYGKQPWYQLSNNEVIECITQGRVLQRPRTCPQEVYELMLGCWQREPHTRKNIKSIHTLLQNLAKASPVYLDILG
T3 sequence (P35739 33-799): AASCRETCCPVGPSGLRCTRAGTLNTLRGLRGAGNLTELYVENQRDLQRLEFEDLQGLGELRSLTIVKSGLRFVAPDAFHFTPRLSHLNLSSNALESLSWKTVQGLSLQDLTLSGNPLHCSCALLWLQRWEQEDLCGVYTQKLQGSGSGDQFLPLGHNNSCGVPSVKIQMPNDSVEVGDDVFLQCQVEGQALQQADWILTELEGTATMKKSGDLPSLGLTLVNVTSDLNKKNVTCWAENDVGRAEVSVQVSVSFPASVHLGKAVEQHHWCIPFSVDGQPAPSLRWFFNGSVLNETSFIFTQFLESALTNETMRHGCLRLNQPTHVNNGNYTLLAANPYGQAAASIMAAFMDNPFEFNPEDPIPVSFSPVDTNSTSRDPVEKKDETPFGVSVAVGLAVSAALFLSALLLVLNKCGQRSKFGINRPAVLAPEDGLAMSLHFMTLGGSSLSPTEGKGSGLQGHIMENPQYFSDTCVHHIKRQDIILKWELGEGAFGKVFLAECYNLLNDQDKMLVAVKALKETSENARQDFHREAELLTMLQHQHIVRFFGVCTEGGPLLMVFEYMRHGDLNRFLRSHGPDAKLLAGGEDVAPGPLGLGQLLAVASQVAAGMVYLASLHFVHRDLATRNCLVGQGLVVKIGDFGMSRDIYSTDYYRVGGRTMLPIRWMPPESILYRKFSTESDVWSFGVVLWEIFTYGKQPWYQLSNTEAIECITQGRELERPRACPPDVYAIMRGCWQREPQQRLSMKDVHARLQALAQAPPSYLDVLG
Chain of mutant mouse trkB receptor gp145^trkB/S345 (P15209 other isoform, or with tags, fused parts or gaps mutant): as the sequence (P15209 32-821) above, with C314S counted along it

B1: human brain-derived neurotrophic factor (BDNF) (ligand, UniProt P23560 129-247, looked up)
chain: HSDPARRGELSVCDSISEWVTAADKKTAVDMSGGTVTVLEKVPVSKGQLKQYFYETKCNPMGYTKEGCRGIDKRHWNSQCRTTQSYVRALTMDSKKRIGWRFIRIDTSCVCTLTIKRGR
modifications: 125I (Bolton-Hunter) where used as tracer in Example 5
notes: mature; also called [125I]-BDNF
- transforming activity of neurotrophic factor DNA in the presence of trkB DNA [1]: 40000 ffu per µg of DNA
- transforming activity of neurotrophic factor DNA in the presence of trk DNA [2]: < 1 ffu per µg of DNA
- binding result [3]: no binding (tested: 500 ng/ml)
- efficiency in mediating the response to BDNF, against wild type gp145^trkB [4]: ~10 fold less efficient than wild type

B2: Xenopus laevis neurotrophin-4 (XNT-4) (ligand, UniProt P24727 114-236, looked up)
chain: ASGSDSVSLSRRGELSVCDSVNVWVTDKRTAVDDRGKIVTVMSEIQTLTGPLKQYFFETKCNPSGSTTRGCRGVDKKQWISECKAKQSYVRALTIDANKLVGWRWIRIDTACVCTLLSRTGRT
- transforming activity with gp145^trkB, against BDNF [5]: 5 fold lower than BDNF

B3: murine 2.5S NGF (βNGF) (ligand, UniProt P01139 122-241, looked up)
chain: SSTHPVFHMGEFSVCDSVSVWVGDKTTATDIKGKEVTVLAEVNINNSVFRQYFFETKCRASNPVESGCRGIDSKHWNSYCTTTHTFVKALTTDEKQAAWRFIRIDTACVCVLSRKATRRG
modifications: 125I label where used as tracer
notes: mature; The background says that βNGF exists as a 26,000 d homodimer; also called [125I]-labeled βNGF; [125I]-NGF
- transforming activity of neurotrophic factor DNA in the presence of trkB DNA [1]: < 1 ffu per µg of DNA
- transforming activity of neurotrophic factor DNA in the presence of trk DNA [2]: 20000 ffu per µg of DNA
- Kd [6]: 0.3 nM
- binding result [7]: no binding (tested: 1 nM)
- Kd [8]: 0.12 nM
- Kd [9]: 0.42 nM
- Kd [10]: 2.4 nM
- Kd [11]: 33.2 nM
- NGF stimulation of agar colonies, 10^3 E25-48 cells [12]: 9 fold
- NGF stimulation of agar colonies, 10^4 E25-48 cells [12]: 7 fold
- Kd [13]: 0.09 nM
- Kd [14]: 13.7 nM
- Kd [15]: 7 nM

B4: human neurotrophin-3 (NT-3) (ligand, UniProt P20783 139-257, looked up)
chain: YAEHKSHRGEYSVCDSESLWVTDKSSAIDIRGHQVTVLGEIKTGNSPVKQYFYETRCKEARPVKNGCRGIDDKHWNSQCKTSQTYVRALTSENNKLVGWRWIRIDTSCVCALSRKIGRT
modifications: 125I (Bolton-Hunter) where used as tracer
notes: mature; also called [125I]-labeled NT-3
- transforming activity of neurotrophic factor DNA in the presence of trkB DNA [1]: 100 ffu per µg of DNA
- transforming activity of neurotrophic factor DNA in the presence of trk DNA [2]: 300 ffu per µg of DNA
- Kd [16]: 4 nM
- Kd [17]: 0.026 nM
- transformation efficiency with pFRK44, against BDNF [5]: 500 fold lower
- efficiency in transformation assays with pDM69, against NGF [18]: 200 fold less efficient than NGF
